Experimental data from patent US11702666B2, “Cell-based assay for determining activity in the retinoblastoma pathway” (Medical Diagnostic Laboratories, LLC, priority 2017, dated 2023).
Residue numbers refer to the chain shown, from its start. In names and notes the source's numbering stands. Entries after “also recorded” stand apart in the source; their conditions may differ. Blank lines part the entries; values can stand above or below the molecule they belong to.

Experiments:
E2F1/Dp-1 heterodimer = assay: Rb activity assay (LB-Rb with E2F1-SB, DP1 split luciferase); assay type: cell-based, human; set-up: key to Observed activity: N—no activity; A—active as WT; R—reduced activity compared to the WT; conditions: for luciferase activity / E2F1 interaction of Rb mutant: LB-Rb and E2F1-SB with Dp-1; for Observed activity / % (/wt): Rb mutants; for % (/wt): activity relative to WT
Chain of E2F1/Dp-1 heterodimer (Q01094 58-437 limits assumed): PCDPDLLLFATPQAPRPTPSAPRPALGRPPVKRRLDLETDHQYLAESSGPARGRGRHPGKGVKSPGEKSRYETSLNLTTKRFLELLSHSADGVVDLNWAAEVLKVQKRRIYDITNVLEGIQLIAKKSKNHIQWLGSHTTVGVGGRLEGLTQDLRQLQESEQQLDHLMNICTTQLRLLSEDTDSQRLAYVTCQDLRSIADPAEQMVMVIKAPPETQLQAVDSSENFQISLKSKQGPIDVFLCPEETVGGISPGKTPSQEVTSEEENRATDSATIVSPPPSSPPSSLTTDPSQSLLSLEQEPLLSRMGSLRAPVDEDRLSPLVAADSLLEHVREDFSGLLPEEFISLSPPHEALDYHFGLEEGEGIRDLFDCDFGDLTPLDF
Chain of E2F1/Dp-1 heterodimer (Q14186 whole entry, further chain): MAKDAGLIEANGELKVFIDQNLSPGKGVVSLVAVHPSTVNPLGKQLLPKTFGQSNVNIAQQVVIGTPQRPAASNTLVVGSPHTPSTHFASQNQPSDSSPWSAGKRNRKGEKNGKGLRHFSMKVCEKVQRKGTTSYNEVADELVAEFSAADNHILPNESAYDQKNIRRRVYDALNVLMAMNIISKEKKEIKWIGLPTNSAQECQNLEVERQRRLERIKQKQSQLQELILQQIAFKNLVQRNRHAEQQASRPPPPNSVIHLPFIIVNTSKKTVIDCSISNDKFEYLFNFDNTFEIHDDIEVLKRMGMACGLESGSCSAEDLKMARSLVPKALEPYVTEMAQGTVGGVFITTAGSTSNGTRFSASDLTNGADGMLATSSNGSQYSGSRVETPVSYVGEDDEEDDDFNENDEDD
Source text: An assay that could measure the interaction between Rb, E2F1, and Dp-1 was developed. Since Dp-1 forms a heterodimer with E2F1 and that interaction is crucial for Rb/E2F1 binding, the assay was comprised of three components. When two proteins (Rb and E2F1) are in close proximity or in complex, a light signal was observed. For the purposes of the current assay, split-luciferase complementation was used to measure the interaction between Rb and E2F1. The NanoBiT assay system by Promega (Madison, Wis.; Dixon et al., 2015, ACS ChemBiol) was used in our split luciferase complementation design.
FIG. 16 depicts the design of a signal system to measure Rb activity. Under basal conditions inside the cell, Rb was active and interacted with the E2F1/Dp-1 heterodimer. For this assay design, cDNAs of Rb linked to different parts of the luciferase protein, either termed as the “Small BiT” (SB), or “Large BiT” (LB) and E2F1 linked to the opposite portion of the luciferase protein were created. When Rb and E2F1/Dp-1 bind, the NanoBiT parts of the luciferase form a complex and emitted a light signal when the luciferase (NanoGlo) substrate was added.
Using the described assay design, HEK293 CDK DKO cells were transiently transfected with different combinations of SB-Rb or LB-Rb and E2F1-LB or E2F1-SB components containing C-terminal and N-terminal constructs (FIG. 17). Relative intensities generated are presented in FIG. 17 as relative luminescence units (RLU). The data represents a sample experiment where each condition was performed in triplicate and represent mean+SD.
The LB-Rb and E2F1-SB with Dp-1 were tested for Rb activity using known Rb null mutants: R661W and C706F (FIG. 18A). […] Rb in-frame (del35) and out-of frame (del1) deletion mutants (FIG. 18B) were constructed and the observed luciferase activity was close to 0, in particular for del1 mutant, because Rb-E2F1 binding was destroyed.
Within the provided assay design, stable cell lines using the HEK293 CDK DKO cell parent line expressing E2F1-SB and Dp-1 were produced. After selection and screening for positive clones using an LB-Rb-mediated increase in signal, four stable single cell clones were selected and evaluated using different Rb mutants (FIGS. 19A and 19B). The response to E2F1 interaction was also checked by using the plasmid and linear form of DNA. Cell line #37 was selected for all our experiments in assay development due to its favorable response.
The conditions of the assay were further optimized by analyzing different cell numbers and Rb concentrations (FIG. 20). Based on the data, it was decided to use 0.2×10^6 cells/ml and 70 ng of DNA in the assay.
Known null and out/in-frame deletion mutants disrupting E2F1 binding and unknown COSMIC mutants were created to examine the ability of the assay to detect variants in Rb that affect function. We transfected WT or mutated Rb using similar conditions as previously indicated (FIG. 20). […] In addition, the null C706F and deletion (del1) mutants presented a signal close to zero as expected for loss of function mutants that disrupt E2F1 interaction. […] This confirmed that the assay was capable of determining the relative activity level of Rb mutants. The data is provided in Luminescence (RLU) of a single experiment with each condition performed in triplicate and represent average+SD.

Rb/E2F1-Dp-1 complex = assay: CDK4 mutant activity / drug resistance in NanoBiT assay, stable cell line #11; assay type: cell-based, human; conditions: CDK4 mutants, compared to the WT (being 100%)
Protocol: A linear expression cassette of mutated CDK4 or CDK6 was generated by PCR mediated overlapping extension method. A pair of forward and reverse primers containing the targeted mutations was designed. The mutated codon was located in the middle of a primer flanked by 18-21 nucleotides on each side. Two PCRs (named as PCR #1 and PCR #2 in FIG. 1) were performed using UF-CMV forward and mutated reverse primers, or mutated forward and BGH-UR primers. The PCR products were cleaned up by ExoSAP-IT® (Affymetrix) to remove unconsumed dNTPs and primers. The treated PCR products were mixed together followed by dilution with water. A second round of PCR was performed using the diluted PCR mixture, and the UF and UR primers (FIG. 1). The amplified products were gel-purified. The DNA concentration was quantitated by the optical density at 260 nm using Nanodrop. The targeted mutations were incorporated in the CDK4 or CDK6 genes during the PCR mediated overlapping extension method. The introduced mutations were confirmed by the DNA sequencing.
To examine the ability of the assay to detect variants in CDK4 or CDK6 that affect function, kinase dead mutants and COSMIC (Catalogue Of Somatic Mutations in cancer) unknown mutants were created. For comparison, hyperactive CDK4 or CDK6 mutants known to be hyperactive due to less binding to natural inhibitor p16 were also created. The mutations in CDK4 or CDK6 were created by site-directed mutagenesis. WT or mutated CDK4 or CDK6 along with the CyclinD1 and SB-Rb were co-transfected, under similar conditions as previously indicated (see FIG. 9).
To examine the specificity of the assay, particular CDK4 kinase dead mutants were created. Modifications to D158 were made by changing aspartate to nonpolar alanine (D158A) or positively charged arginine (D158R). […] The mutations in CDK4 were created by site-directed mutagenesis. WT or mutated CDK4 along with the CyclinD1 and SB-Rb was co-transfected into the #11 cell line, under the same conditions as previously indicated. […] Kinase dead mutants have the high signal due to inability to phosphorylate Rb.
Computer modeling was used to reveal the drug-binding pocket and predict drug-resistant mutants. The mutations in CDK4 and CDK6 were created by site-directed mutagenesis. WT or mutated CDK4 or CDK6 along with the CyclinD1 and SB-Rb was co-transfected into #11 cell line, under the same conditions as previously indicated. […] Dose response curves are presented on FIG. 13A and FIG. 13B. Activity of other mutants was very similar to the WT or KD.
CDK4 and CDK6 mutants with known function and unknown function taken from the COSMIC database were analyzed in the present assay and are summarized in Table 7A and Table 7B. The mutants were classified according to their activity. Table 7A and Table 7B also show the number of counts per mutant in the COSMIC database, type of cancer, and luciferase activity compared to the WT (being 100%).

Observed activity (E2F1/Dp-1 heterodimer): N
% (/wt) (E2F1/Dp-1 heterodimer): 5.2%
B1: Rb R661W: known Rb null mutant (protein, UniProt P06400 2-928, looked up, variant R661W)
Retinoblastoma-associated …: PPKTPRKTAATAAAAAAEPPAPPPPPPPEEDPEQDSGPEDLPLVRLEFEETEEPDFTALCQKLKIPDHVRERAWLTWEKVSSVDGVLGGYIQKKKELWGICIFIAAVDLDEMSFTFTELQKNIEISVHKFFNLLKEIDTSTKVDNAMSRLLKKYDVLFALFSKLERTCELIYLTQPSSSISTEINSALVLKVSWITFLLAKGEVLQMEDDLVISFQLMLCVLDYFIKLSPPMLLKEPYKTAVIPINGSPRTPRRGQNRSARIAKQLENDTRIIEVLCKEHECNIDEVKNVYFKNFIPFMNSLGLVTSNGLPEVENLSKRYEEIYLKNKDLDARLFLDHDKTLQTDSIDSFETQRTPRKSNLDEEVNVIPPHTPVRTVMNTIQQLMMILNSASDQPSENLISYFNNCTVNPKESILKRVKDIGYIFKEKFAKAVGQGCVEIGSQRYKLGVRLYYRVMESMLKSEEERLSIQNFSKLLNDNIFHMSLLACALEVVMATYSRSTSQNLDSGTDLSFPWILNVLNLKAFDFYKVIESFIKAEGNLTREMIKHLERCEHRIMESLAWLSDSPLFDLIKQSKDREGPTDHLESACPLNLPLQNNHTAADMYLSPVRSPKKKGSTTRVNSTANAETQATSAFQTQKPLKSTSLSLFYKKVYRLAYLWLNTLCERLLSEHPELEHIIWTLFQHTLQNEYELMRDRHLDQIMMCSMYGICKVKNIDLKFKIIVTAYKDLPHAVQETFKRVLIKEEEYDSIIVFYNSVFMQRLKTNILQYASTRPPTLSPIPHIPRSPYKFPSSPLRIPGGNIYISPLKSPYKISEGLPTPTKMTPRSRILVSIGESFGTSEKFQKINQMVCNSDRVLKRSAEGSNPPKPLKKLRFDIEGSDEADGSKHLPGESKFQQKLAEMTSTRTRMQKQKMNDSMDTSNKEEK
luciferase activity / E2F1 interaction of Rb mutant (E2F1/Dp-1 heterodimer): completely disrupted the E2F1 interaction

Observed activity (E2F1/Dp-1 heterodimer): N
% (/wt) (E2F1/Dp-1 heterodimer): 5.5%
B2: Rb C706F: known Rb null mutant (protein, UniProt P06400 2-928, looked up, variant C706F)
Retinoblastoma-associated …: B1 Retinoblastoma-associated … with W660R, C705F
luciferase activity / E2F1 interaction of Rb mutant (E2F1/Dp-1 heterodimer): completely disrupted the E2F1 interaction; also recorded: close to zero

B3: CDK4 K22M: CDK4 mutant from COSMIC database (protein, UniProt P11802 2-303, looked up, variant K22M)
Cyclin-dependent kinase 4: ATSRYEPVAEIGVGAYGTVYMARDPHSGHFVALKSVRVPNGGGGGGGLPISTVREVALLRRLEAFEHPNVVRLMDVCATSRTDREIKVTLVFEHVDQDLRTYLDKAPPPGLPAETIKDLMRQFLRGLDFLHANCIVHRDLKPENILVTSGGTVKLADFGLARIYSYQMALTPVVVTLWYRAPEVLLQSTYATPVDMWSVGCIFAEMFRRKPLFCGNSEADQLGKIFDLIGLPPEDDWPRDVSLPRGAFPPRGPRPVQSVVPEMEESGAQLLLEMLTFNPHKRISAFRALQHSYLHKDEGNPE
Luc. activity (/wt) (Rb/E2F1-Dp-1 complex): 141%

B4: CDK4 K155Q: CDK4 mutant from COSMIC database (protein, UniProt P11802 2-303, looked up, variant K155Q)
Cyclin-dependent kinase 4: B3 Cyclin-dependent kinase 4 with M21K, K154Q
Luc. activity (/wt) (Rb/E2F1-Dp-1 complex): 130%

B5: CDK4 K35M: CDK4 mutant, literature kinase dead (protein, UniProt P11802 2-303, looked up, variant K35M)
Cyclin-dependent kinase 4: B3 Cyclin-dependent kinase 4 with M21K, K34M
Luc. activity (/wt) (Rb/E2F1-Dp-1 complex): 350%

B6: CDK4 K35R: CDK4 mutant from COSMIC database (protein, UniProt P11802 2-303, looked up, variant K35R)
Cyclin-dependent kinase 4: B3 Cyclin-dependent kinase 4 with M21K, K34R
Luc. activity (/wt) (Rb/E2F1-Dp-1 complex): 310%

B7: CDK4 S285C: CDK4 mutant from COSMIC database (protein, UniProt P11802 2-303, looked up, variant S285C)
Cyclin-dependent kinase 4: B3 Cyclin-dependent kinase 4 with M21K, S284C
Luc. activity (/wt) (Rb/E2F1-Dp-1 complex): 125%

B8: CDK4 R24S: CDK4 mutant from COSMIC database (protein, UniProt P11802 2-303, looked up, variant R24S)
Cyclin-dependent kinase 4: B3 Cyclin-dependent kinase 4 with M21K, R23S
Luc. activity (/wt) (Rb/E2F1-Dp-1 complex): 117%

B9: CDK4 D158N: CDK4 mutant, literature kinase dead (protein, UniProt P11802 2-303, looked up, variant D158N)
Cyclin-dependent kinase 4: B3 Cyclin-dependent kinase 4 with M21K, D157N
Luc. activity (/wt) (Rb/E2F1-Dp-1 complex): 300%

B10: CDK4 D158Y: CDK4 mutant from COSMIC database (protein, UniProt P11802 2-303, looked up, variant D158Y)
Cyclin-dependent kinase 4: B3 Cyclin-dependent kinase 4 with M21K, D157Y
Luc. activity (/wt) (Rb/E2F1-Dp-1 complex): 230%

B11: CDK4 V137I: CDK4 mutant from COSMIC database (protein, UniProt P11802 2-303, looked up, variant V137I)
Cyclin-dependent kinase 4: B3 Cyclin-dependent kinase 4 with M21K, V136I
Luc. activity (/wt) (Rb/E2F1-Dp-1 complex): 120%

B12: CDK4 L161L: CDK4 silent variant (C-T) from COSMIC database (protein, UniProt P11802 2-303, looked up)
Cyclin-dependent kinase 4: B3 Cyclin-dependent kinase 4 with M21K
modifications: silent L161L nucleotide variant
notes: CDK4 silent variant (C-T) from COSMIC database
Luc. activity (/wt) (Rb/E2F1-Dp-1 complex): 59%

B13: CDK4 R210Q: CDK4 mutant from COSMIC database (protein, UniProt P11802 2-303, looked up, variant R210Q)
Cyclin-dependent kinase 4: B3 Cyclin-dependent kinase 4 with M21K, R209Q
Luc. activity (/wt) (Rb/E2F1-Dp-1 complex): 74.5%
